Experimental data from patent publication CN111378037A.

Molecular target: Human IL33-his (Human IL33 (NP_254274.1) Ser112-Thr270 with a C-terminal 6-histidine tag, expressed in E. coli) (human) (UniProt O95760)
Assay: cell-based or functional assay

UniProt O95760, sequence (O95760 other isoform, or with tags, fused parts or gaps limits assumed, form in doubt): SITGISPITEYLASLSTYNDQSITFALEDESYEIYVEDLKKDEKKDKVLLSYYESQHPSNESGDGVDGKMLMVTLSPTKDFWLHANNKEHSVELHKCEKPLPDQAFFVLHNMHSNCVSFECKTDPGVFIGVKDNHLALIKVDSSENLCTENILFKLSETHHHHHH

IC50 of inhibition of IL-5 production by KU812 cells stimulated with IL33: 0.51 µg/mL
Substance: 对照抗体 ANB020 (antibody)
